Results reported in PMC4157633 (Laboratory investigation; a journal of technical methods …, 2014).

B1: human carcinoembryonic antigen (hCEA) protein, purified (natural protein, UniProt P06731 35-685, looked up)
chain: KLTIESTPFNVAEGKEVLLLVHNLPQHLFGYSWYKGERVDGNRQIIGYVIGTQQATPGPAYSGREIIYPNASLLIQNIIQNDTGFYTLHVIKSDLVNEEATGQFRVYPELPKPSISSNNSKPVEDKDAVAFTCEPETQDATYLWWVNNQSLPVSPRLQLSNGNRTLTLFNVTRNDTASYKCETQNPVSARRSDSVILNVLYGPDAPTISPLNTSYRSGENLNLSCHAASNPPAQYSWFVNGTFQQSTQELFIPNITVNNSGSYTCQAHNSDTGLNRTTVTTITVYAEPPKPFITSNNSNPVEDEDAVALTCEPEIQNTTYLWWVNNQSLPVSPRLQLSNDNRTLTLLSVTRNDVGPYECGIQNELSVDHSDPVILNVLYGPDDPTISPSYTYYRPGVNLSLSCHAASNPPAQYSWLIDGNIQQHTQELFISNITEKNSGLYTCQANNSASGHSRTTVKTITVSAELPKPSISSNNSKPVEDKDAVAFTCEPEAQNTTYLWWVNGQSLPVSPRLQLSNGNRTLTLFNVTRNDARAYVCGIQNSVSANRSDPVTLDVLYGPDTPIISPPDSSYLSGANLNLSCHSASNPSPQYSWRINGIPQQHTQVLFIAKITPNNNGTYACFVSNLATGRNNSIVKSITVSASGTSPGLSA
B2: anti-hCEA VHH JJB-D1, thioredoxin fusion protein (VHH)
VHH: QVQLVESGGLVQAGGSLRPSCAASGSIFLQNAMGWYRQVPGKQRELVAAITSVDSTNYADSVKGRFTISRDNAKNTVYLQMNSLKPEDTAVYYCNAPWNSDYHWGKGTLVTVSS
B3: anti-hCEA VHH JJB-B2, thioredoxin fusion protein (VHH)
VHH: QVQLVETGGGLVQPGGSLRLSCAASESIFSTYAMGWYRQAPGKQRELVAAITTNDIANYADSVKGRFTISRDNAKNTVYLQMNSLNPEDTAVYYCNAIFPPYNYWGQGTQVTVSS
B4: anti-hCEA VHH JJB-A3, thioredoxin fusion protein (VHH)
VHH: QVQLVETGGGLVQPGGSLRLSCAASGRISDINAMGWYRQAPGKQRELVAAITSVGSNYVDSVKGRFTISKDNAKNTVYLQMYSLNPEDTAVYYCNTQCGTWLVCDGRDQWGKGTLVTVSS
B5: anti-hCEA VHH JJB-B5, thioredoxin fusion protein (VHH)
VHH: QVQLVETGGGLVQPGGSLRPSCTASGSIFSIYAMGWYRQASGKQRELVALITRDEVFNYADSVKGRFTISRDNAKDTVYLQMNSLKPEDTAVYYCWVETVNDHYNSGVEDYWGQGTQVTVSS

Assays:
[1] = molecular target: anti-EGFR VHH122-fiber-fibritin chimera displayed on the AdVHH122Luc vector (human adenovirus serotype 5 | …); experiment: ELISA
[2] = molecular target: B1; experiment: ELISA

Binder | binding result [1] | EC50 [2]
B1 | no binding | –
B2 | – | ~1 nM
B3 | – | ~0.2 nM
B4 | – | ~0.15 nM
B5 | – | ~50 nM
